According to publication PMC9894935, “FMO rewires metabolism to promote longevity through tryptophan and one carbon metabolism in C. elegans” (Nature Communications, 2023):

Experiments:
[1] = substrate: N[C@@H](Cc1c[nH]c2ccccc12)C(=O)O; assay: purified protein; assay type: biochemical, Caenorhabditis elegans; details: 0.5 mM NADPH, excess FAD, 0.04 µM FMO-2, 25 mM sodium phosphate pH 8.5, 0.5 mM DETAPAC, 30 °C
[2] = substrate: NC(=O)C1=CN([C@@H]2O[C@H](COP(=O)(O)OP(=O)(O)OC[C@H]3O[C@@H](n4cnc5c(N)ncnc54)[C@H](OP(=O)(O)O)[C@@H]3O)[C@@H](O)[C@H]2O)C=CC1; assay: purified protein; assay type: biochemical, Caenorhabditis elegans; details: NADPH varied 10 µM to 1.5 mM, excess FAD, 25 mM sodium phosphate pH 8.5, 30 °C, varied: cofactor

B1: FMO-2 (CeFMO-2) (Caenorhabditis elegans) (protein)
chain: MGNKRVAVIGAGASGLPSIRHGLLYGFDVTCFEASDDIGGLWRYKSHETNESSVMKTTVINTSKEMTAYSDFTPQENLANFMHNNEMLNYFKSYAEHHGLMKHIKLRHRVLNIERSKNYDNDGTWKVIYQTPEEKTLEEIFDGVLVCSGHHAIPHWPKPFPGQNEFKGRIVHSHDYKDHKGYEDKVVVVVGIGNSGIDVAVEQSRIAKQVYLVTRRGTWLIPKLETRGLPFDIIMNTRFFSLYKLFPQAMLNSLVEYRINQRIDHDLYGLKPAHRVFSAHPSLNDELPNRIANGTVRIKPNIKKFDGYAIHFEDGTIVPHVDEVVMSTGFSFEFNLIEHGKLVPVSENEVDLFKYMFPVATSDHNSLCIIGLIQPFGSIMPVSEQQARVFFANMVSGNNLIPKKSQMSEDVLNKKEAMAQQFVKSRRHTIQVDYIPYMDELAELIGCQVPLLRTLFTDPVLGLRLFFGPNAGYCYRLAGPHTWNGARNAILTIDQRVRMATTTKPEPTNYTVPLVISSIILLLVIYFVM
notes: purified FMO-2 protein purchased from GenScript; assayed with excess FAD
Km [1]: 880 ± 430 µM | kcat [1]: 9.7 ± 1.5 s⁻¹ | Km [2]: 2.50 ± 1.24 mM | kcat [2]: 264 ± 98 s⁻¹
